Biological target: fusion of human collagen type I, alpha 1 solubility-enhancing sequence (HsCol1a1-27), TEV cleavage site ENLYFQG and human keratin type 31 polypeptide fragment (K31)

B1: AcTEV protease (protein)
chain: GESLFKGPRDYNPISSTICHLTNESDGHTTSLYGIGFGPFIITNKHLFRRNNGTLLVQSLHGVFKVKNTTTLQQHLIDGRDMIIIRMPKDFPPFPQKLKFREPQREERICLVTTNFQTKSMSSMVSDTSCTFPSSDGIFWKHWIQTKDGQCGSPLVSTRDGFIVGIHSASNFTNTNNYFTSVPKNFMELLTNQEAQQWVSGWRLNADSVLWGGHKVFMSKPEEPFQPVKEATQLMNELVYSQ
cleavage of the fusion protein, SDS-PAGE with Coomassie Blue: confirm that the cleavage was successful
